According to patent US20240182536A1 (MURAL ONCOLOGY, published 2024):
Read-outs that look alike come from different tables or passages of the source.

T1: IL-18 receptor (IL-18Rα and IL-18Rβ) (UniProt Q13478 19-541; O95256 20-599, limits assumed)
T1 sequence (looked up) 1: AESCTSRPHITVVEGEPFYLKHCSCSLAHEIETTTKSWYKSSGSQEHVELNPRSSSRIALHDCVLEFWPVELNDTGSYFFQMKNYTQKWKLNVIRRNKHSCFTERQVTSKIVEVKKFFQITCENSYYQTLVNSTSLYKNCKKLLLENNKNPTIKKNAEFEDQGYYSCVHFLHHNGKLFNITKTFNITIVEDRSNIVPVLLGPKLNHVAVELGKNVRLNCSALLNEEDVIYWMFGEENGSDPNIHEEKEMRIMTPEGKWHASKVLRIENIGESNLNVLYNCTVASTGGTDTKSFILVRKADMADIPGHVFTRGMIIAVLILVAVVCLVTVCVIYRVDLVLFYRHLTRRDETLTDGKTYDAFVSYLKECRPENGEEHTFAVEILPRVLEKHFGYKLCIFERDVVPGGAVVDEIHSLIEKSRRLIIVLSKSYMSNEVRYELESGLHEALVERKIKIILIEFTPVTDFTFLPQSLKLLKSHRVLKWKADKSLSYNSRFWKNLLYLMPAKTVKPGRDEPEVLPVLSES
T1 sequence (looked up) 2: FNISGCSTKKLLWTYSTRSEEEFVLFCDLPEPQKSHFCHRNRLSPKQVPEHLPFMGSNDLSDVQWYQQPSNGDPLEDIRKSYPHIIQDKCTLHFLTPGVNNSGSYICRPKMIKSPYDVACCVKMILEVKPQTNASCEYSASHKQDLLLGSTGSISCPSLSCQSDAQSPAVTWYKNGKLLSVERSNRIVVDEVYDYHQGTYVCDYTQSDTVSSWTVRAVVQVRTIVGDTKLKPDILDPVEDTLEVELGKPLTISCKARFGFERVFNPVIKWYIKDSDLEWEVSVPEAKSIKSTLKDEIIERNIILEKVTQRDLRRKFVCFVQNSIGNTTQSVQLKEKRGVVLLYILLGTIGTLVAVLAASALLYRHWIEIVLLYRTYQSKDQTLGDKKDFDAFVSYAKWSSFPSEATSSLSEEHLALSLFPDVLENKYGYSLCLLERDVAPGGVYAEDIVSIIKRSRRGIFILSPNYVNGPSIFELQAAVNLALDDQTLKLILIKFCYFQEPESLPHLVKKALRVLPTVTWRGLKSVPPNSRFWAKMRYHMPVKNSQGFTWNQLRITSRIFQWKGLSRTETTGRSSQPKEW

T2: interleukin 18 binding protein (IL-18BP) (UniProt O95998 31-194)
T2 sequence (looked up): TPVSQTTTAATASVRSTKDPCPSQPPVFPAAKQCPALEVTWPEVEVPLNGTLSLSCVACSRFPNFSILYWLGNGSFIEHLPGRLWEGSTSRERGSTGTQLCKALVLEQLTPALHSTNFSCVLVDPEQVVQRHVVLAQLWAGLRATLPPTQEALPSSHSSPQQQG

B1: IL-18 variant G3P, E6K, D54R, S55P, T63A, N91V (ligand)
chain: YFPKLKSKLSVIRNLNDQVLFIDQGNRPLFEDMTDSDMRDNAPRTIFIISMYKRPQPRGMAVAISVKSEKISTLSSENKIISFKEMNPPDVIKDTKSDIIFFQRSVPGHDNKMQFESSSYEGYFLASEKERDLFKLILKKEDELGDRSIMFTVQNED
B2: IL-18 variant G3P, E6K, D54Y, S55P, Q56H, T63S, N91S, R104Q (ligand)
chain: YFPKLKSKLSVIRNLNDQVLFIDQGNRPLFEDMTDSDMRDNAPRTIFIISMYKYPHPRGMAVSISVKSEKISTLSSENKIISFKEMNPPDSIKDTKSDIIFFQQSVPGHDNKMQFESSSYEGYFLASEKERDLFKLILKKEDELGDRSIMFTVQNED
B3: IL-18 variant G3P, E6K, D54Y, S55P, T63S, N91S, R104Q (ligand)
chain: YFPKLKSKLSVIRNLNDQVLFIDQGNRPLFEDMTDSDMRDNAPRTIFIISMYKYPQPRGMAVSISVKSEKISTLSSENKIISFKEMNPPDSIKDTKSDIIFFQQSVPGHDNKMQFESSSYEGYFLASEKERDLFKLILKKEDELGDRSIMFTVQNED
B4: IL-18 variant G3P, E6K, D54Y, S55P, T63S, N91S, R104Q, Q154R (ligand)
chain: YFPKLKSKLSVIRNLNDQVLFIDQGNRPLFEDMTDSDMRDNAPRTIFIISMYKYPQPRGMAVSISVKSEKISTLSSENKIISFKEMNPPDSIKDTKSDIIFFQQSVPGHDNKMQFESSSYEGYFLASEKERDLFKLILKKEDELGDRSIMFTVRNED
B5: IL-18 variant G3P, E6V, K53A, D54W, S55P, T63S, N91L, R104K (ligand)
chain: YFPKLVSKLSVIRNLNDQVLFIDQGNRPLFEDMTDSDMRDNAPRTIFIISMYAWPQPRGMAVSISVKSEKISTLSSENKIISFKEMNPPDLIKDTKSDIIFFQKSVPGHDNKMQFESSSYEGYFLASEKERDLFKLILKKEDELGDRSIMFTVQNED
B6: IL-18 variant G3Q, E6H, K53T, D54S, S55Y, N91Y, R104K (ligand)
chain: YFQKLHSKLSVIRNLNDQVLFIDQGNRPLFEDMTDSDMRDNAPRTIFIISMYTSYQPRGMAVTISVKSEKISTLSSENKIISFKEMNPPDYIKDTKSDIIFFQKSVPGHDNKMQFESSSYEGYFLASEKERDLFKLILKKEDELGDRSIMFTVQNED
B7: IL-18 variant G3Q, E6G, D54N, S55H, T63V, N91M, R104T (ligand)
chain: YFQKLGSKLSVIRNLNDQVLFIDQGNRPLFEDMTDSDMRDNAPRTIFIISMYKNHQPRGMAVVISVKSEKISTLSSENKIISFKEMNPPDMIKDTKSDIIFFQTSVPGHDNKMQFESSSYEGYFLASEKERDLFKLILKKEDELGDRSIMFTVQNED

Key:
Test in all cases: cell-based or functional assay
[1] = target: T1, IL-18 receptor (IL-18Rα and IL-18Rβ)
[2] = target: T2, interleukin 18 binding protein (IL-18BP)
[3] = target: T1, IL-18 receptor (IL-18Rα and IL-18Rβ); remark: listed apart in the source
[4] = target: T2, interleukin 18 binding protein (IL-18BP); remark: listed apart in the source

Binder	EC50 (pM) - BP, HEK-blue re-screening [1] [pM]	EC50 (pM) + 300 nM BP, HEK-blue re-screening [2] [pM]	Ratio (HEK-blue EC50, + 300 nM BP against - BP) [2]	EC50 (pM) - BP, HEK-blue re-screening [3] [pM]	EC50 (pM) + 100 nM BP, HEK-blue re-screening [4] [pM]	Ratio (HEK-blue EC50, + 100 nM BP against - BP) [4]
B1	9.07	10.1	1.1	–	–	–
B2	1.58	2.99	1.9	–	–	–
B3	0.73	1.18	1.6	–	–	–
B4	1.09	2.58	2.4	–	–	–
B5	8.21	15.8	1.9	–	–	–
B6	2.63	4.69	1.8	–	–	–
B7	–	–	–	0.99	2.66	2.7
